Laboratory results from paper PMC9109680.

Tests used:
P37277 [1] = test: anion-exchange chromatography; DDM-solubilised thylakoid membranes (2 mg chl) on DEAE, MgSO4 gradient, 0.04% DDM; A700 peak areas of the PSI trimer and PSI monomer fractions; cells grown under standard conditions (GL); WT and ORR1 strains; details: other: anion-exchange chromatography
P37277 [2] = test: anion-exchange chromatography; DDM-solubilised thylakoid membranes (2 mg chl) on DEAE, MgSO4 gradient, 0.04% DDM; A700 peak areas of the PSI trimer and PSI monomer fractions; cells grown under increased photon flux (FL); WT and ORR1 strains; details: other: anion-exchange chromatography
[3] = molecular target: photosystem I (PSI) reaction center (Synechocystis sp. PCC 6803 (endogenous in S. 6803 cells)) (UniProt P37277); test: anion-exchange chromatography; DDM-solubilised thylakoid membranes (2 mg chl) on DEAE, MgSO4 gradient, 0.04% DDM; A700 peak areas of the PSI trimer and PSI monomer fractions; cells grown under standard conditions (GL); WT and ORR1 strains
[4] = molecular target: photosystem I (PSI) reaction center (Synechocystis sp. PCC 6803 (endogenous in S. 6803 cells)) (UniProt P37277); test: native gel or EMSA; BN-PAGE, 4-16% Bis/Tris gels, of PSI fractions isolated by anion-exchange chromatography (or sucrose gradients), 0.04% DDM; bands compared to literature; WT and ORR1 cells, GL or FL
[5] = molecular target: photosystem I (PSI) reaction center (Synechocystis sp. PCC 6803 (endogenous in S. 6803 cells)) (UniProt P37277); test: anion-exchange chromatography; DDM-solubilised thylakoid membranes (2 mg chl) on DEAE, MgSO4 gradient, 0.04% DDM; A700 peak areas of the PSI trimer and PSI monomer fractions; cells grown under increased photon flux (FL); WT and ORR1 strains

photosystem I (PSI) reaction center, sequence (P37277 whole entry, looked up): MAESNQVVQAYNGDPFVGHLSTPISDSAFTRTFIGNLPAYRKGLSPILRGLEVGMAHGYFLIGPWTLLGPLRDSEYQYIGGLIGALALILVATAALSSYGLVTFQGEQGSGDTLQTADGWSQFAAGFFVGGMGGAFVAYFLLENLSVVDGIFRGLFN

## photosystem I (PSI) reaction center
P37277 [1]
  Monomer (% of total PSI), ORR1 strain (% of total PSI): 18
  Monomer (% of total PSI), WT strain (% of total PSI): 14
P37277 [2]
  Monomer (% of total PSI), ORR1 strain (% of total PSI): 34
  Monomer (% of total PSI), WT strain (% of total PSI): 10

## photosystem I (PSI) reaction center (from UniProt P37277 1-157) (complex)
[3]
  Monomer : trimer (A700 peak areas), ORR1 strain: 0.23
  Monomer : trimer (A700 peak areas), WT strain: 0.17
  Trimer : monomer (A700 peak areas), ORR1 strain: 4.6
  Trimer : monomer (A700 peak areas), WT strain: 6.3
[4]
  stoichiometry N: 3
[5]
  Monomer : trimer (A700 peak areas), ORR1 strain: 0.53
  Monomer : trimer (A700 peak areas), WT strain: 0.11
  Trimer : monomer (A700 peak areas), ORR1 strain: 2
  Trimer : monomer (A700 peak areas), WT strain: 9.2
